Measurements published in patent US20250171533A1 (NEXTPOINT THERAPEUTICS, published 2025).

Key:
[1] = target: T1, KIR3DL3 expressed on cells (human, UniProt Q8N743 26-410); experiment: cell-based or functional assay
[2] = target: T1, KIR3DL3 expressed on cells; experiment: flow cytometry on 300.19-KIR3DL3 cells, anti-human PE secondary, gMFI
Method: (§1) Flow cytometric analysis of primary antibody binding was detected using an anti-human PE secondary antibody. The mean and standard deviation of duplicate data points are shown. Data performed in duplicate was entered into GraphPad Prism software and the EC₅₀ was determined using a 4-parameter nonlinear regression equation.

[3] = target: T2, recombinant KIR3DL3 protein (human) (human, UniProt Q8N743 26-322, limits assumed); experiment: SPR (Biacore); column kd1 (1/s); the drawn table names KIR3DL3 as analyte and NPX267 as ligand, paragraph 256 says the reverse
T2 construct: also called human KIR3DL3; killer cell immunoglobulin like receptor, three Ig domains and long cytoplasmic tail 3
Method: (§2) The monovalent binding affinity of NPX267 to recombinant KIR3DL3 protein was determined by SPR using a Biacore instrument; KIR3DL3 protein was immobilized on a CM5 chip and NPX267 was run as the analyte. […] No off-target binding was found in a screen of greater than 5800 plasma membrane proteins.

[4] = target: T2, recombinant KIR3DL3 protein (human); experiment: SPR (Biacore); column ka1 (1/Ms); the drawn table names KIR3DL3 as analyte and NPX267 as ligand, paragraph 256 says the reverse
Method: as §2

[5] = target: T2, recombinant KIR3DL3 protein (human); experiment: SPR (Biacore), KIR3DL3 protein immobilized on a CM5 chip, NPX267 as analyte; KIR3DL3 immobilized on CM5 chip; NPX267 IgG4 as analyte
Method: as §2

[6] = target: T1, KIR3DL3 expressed on cells; experiment: flow cytometry on NK92MI cells, anti-human PE secondary, gMFI; no unit beside the number, unit taken from the axis log [ug/mL]
Method: as §1
NK92 MI cells were treated with NPX267 at concentrations ranging from […] to 0.0005 mg/mL for 30 minutes (FIG. 3B). Flow cytometric analysis of primary antibody binding was detected using an anti-human PE secondary antibody. The mean and standard deviation of triplicate data points are shown.

[7] = target: T1, KIR3DL3 expressed on cells; experiment: blocking assay by flow cytometry on 300.19-KIR3DL3 cells; blocked ligand: recombinant biotinylated HHLA2, detected by streptavidin-APC
Method: Recombinant biotinylated HHLA2 at 5 mg/mL was added to the cells and incubated for 30 minutes. The cells were treated with 1:250 of APC-streptavidin for 30 minutes to detect recombinant biotinylated HHLA2 bound to cells. […] NPX267 blocked recombinant HHLA2-Fc from binding to its inhibitory receptor KIR3DL3 in a dose dependent manner.

[8] = target: T1, KIR3DL3 expressed on cells; experiment: flow cytometry on primary human NK cells in whole blood, Donor KP63901, GeoMean of anti-human PE secondary; no unit in the table, unit taken from the axis Log [ug/ml]
Method: (§3) For primary human NK cells, human whole blood cells were treated with NPX267 at concentrations ranging from […] to […] for 30 minutes (FIG. 3C). Red blood cells were lysed and cells were stained with a cocktail of anti-human CD3, Anti-human CD56 and anti-human IgG4 PE. Flow cytometric analysis of primary antibody binding was detected using an anti-human PE secondary antibody.

[9] = target: T1, KIR3DL3 expressed on cells; experiment: flow cytometry on primary human NK cells in whole blood, Donor KP63935, GeoMean of anti-human PE secondary; no unit in the table, unit taken from the axis Log [ug/ml]
Method: as §3

[10] = target: T1, KIR3DL3 expressed on cells; experiment: flow cytometry on primary human NK cells in whole blood, Donor KP63936, GeoMean of anti-human PE secondary; no unit in the table, unit taken from the axis Log [ug/ml]
Method: as §3

T1 sequence (Q8N743 26-410): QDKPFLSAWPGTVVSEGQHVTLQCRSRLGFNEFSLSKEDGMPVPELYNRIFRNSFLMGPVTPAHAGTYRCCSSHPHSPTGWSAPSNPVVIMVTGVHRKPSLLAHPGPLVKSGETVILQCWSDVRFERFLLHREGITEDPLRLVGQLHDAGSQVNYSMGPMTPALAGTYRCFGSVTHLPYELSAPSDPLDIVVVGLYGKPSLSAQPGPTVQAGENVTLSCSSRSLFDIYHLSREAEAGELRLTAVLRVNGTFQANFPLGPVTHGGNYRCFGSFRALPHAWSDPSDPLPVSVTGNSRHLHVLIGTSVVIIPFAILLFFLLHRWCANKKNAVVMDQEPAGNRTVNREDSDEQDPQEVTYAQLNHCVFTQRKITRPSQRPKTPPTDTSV
T2 sequence (Q8N743 26-322 limits assumed): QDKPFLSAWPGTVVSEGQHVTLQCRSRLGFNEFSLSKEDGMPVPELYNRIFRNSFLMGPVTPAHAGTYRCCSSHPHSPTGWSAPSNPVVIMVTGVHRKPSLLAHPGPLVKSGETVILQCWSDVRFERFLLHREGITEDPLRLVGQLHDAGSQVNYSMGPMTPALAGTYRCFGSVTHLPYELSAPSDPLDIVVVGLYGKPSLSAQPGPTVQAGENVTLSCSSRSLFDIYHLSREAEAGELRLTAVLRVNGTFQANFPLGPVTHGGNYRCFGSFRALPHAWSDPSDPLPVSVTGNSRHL

- EC50 [2]: 0.0684 µg/mL
- koff [3]: 0.000398 s⁻¹
- kon [4]: 587000 M⁻¹ s⁻¹
- Kd [5]: 0.679 nM
- EC50 [6]: 0.131 µg/mL
- IC50 (read off the curve) [7]: ~0.05 µg/mL
- EC50 [8]: 0.0298 µg/mL
- EC50 [9]: 0.0294 µg/mL
- EC50 [10]: 0.098 µg/mL
B1: NPX267 (Hu26E10z7p7) (antibody, human IgG4 S228P, kappa, V domains shown)
VH: QAQLVQSGAEVKKPGASVKVSCKASGYTFTSYNIHWVRQAPGQGLEWMGYIYPGDAVTNYNQKFKGRVTMTADTSTSTVYMELSSLRSEDTAVYYCARSGNYGNYEGFAYWGQGTLVTVSS
VL: DIQMTQSPSSLSASVGDRVTITCKASQDTQSYLSWFQQKPGKAPKTLIYRANRLVDGVPSRFSGSGSGTDFTLTISSLQPEDFATYYCLQYDEFPYTFGGGTKVEIKR
notes: For staining of tumor infiltrating NK cells an APC conjugate (NPX267-APC) was used; also called humanized version of 26E10
- target cell death (Annexin V), NK92MI effector cells against K562 cells engineered to express HHLA2 [1]: 2 fold
